How the values were obtained:
[1] = biological target: T1, cynomolgus monkey CD45 on the T cell line HSC-F (cynomolgus monkey, UniProt A0A2K5VQ76 26-1301); assay: FACS competition with FITC-conjugated mA6 on HSC-F cells; curve fit assuming divalent antibody binding
T1 construct: whole, on cells; also called cynomolgus HSC-F cell target
T1 sequence: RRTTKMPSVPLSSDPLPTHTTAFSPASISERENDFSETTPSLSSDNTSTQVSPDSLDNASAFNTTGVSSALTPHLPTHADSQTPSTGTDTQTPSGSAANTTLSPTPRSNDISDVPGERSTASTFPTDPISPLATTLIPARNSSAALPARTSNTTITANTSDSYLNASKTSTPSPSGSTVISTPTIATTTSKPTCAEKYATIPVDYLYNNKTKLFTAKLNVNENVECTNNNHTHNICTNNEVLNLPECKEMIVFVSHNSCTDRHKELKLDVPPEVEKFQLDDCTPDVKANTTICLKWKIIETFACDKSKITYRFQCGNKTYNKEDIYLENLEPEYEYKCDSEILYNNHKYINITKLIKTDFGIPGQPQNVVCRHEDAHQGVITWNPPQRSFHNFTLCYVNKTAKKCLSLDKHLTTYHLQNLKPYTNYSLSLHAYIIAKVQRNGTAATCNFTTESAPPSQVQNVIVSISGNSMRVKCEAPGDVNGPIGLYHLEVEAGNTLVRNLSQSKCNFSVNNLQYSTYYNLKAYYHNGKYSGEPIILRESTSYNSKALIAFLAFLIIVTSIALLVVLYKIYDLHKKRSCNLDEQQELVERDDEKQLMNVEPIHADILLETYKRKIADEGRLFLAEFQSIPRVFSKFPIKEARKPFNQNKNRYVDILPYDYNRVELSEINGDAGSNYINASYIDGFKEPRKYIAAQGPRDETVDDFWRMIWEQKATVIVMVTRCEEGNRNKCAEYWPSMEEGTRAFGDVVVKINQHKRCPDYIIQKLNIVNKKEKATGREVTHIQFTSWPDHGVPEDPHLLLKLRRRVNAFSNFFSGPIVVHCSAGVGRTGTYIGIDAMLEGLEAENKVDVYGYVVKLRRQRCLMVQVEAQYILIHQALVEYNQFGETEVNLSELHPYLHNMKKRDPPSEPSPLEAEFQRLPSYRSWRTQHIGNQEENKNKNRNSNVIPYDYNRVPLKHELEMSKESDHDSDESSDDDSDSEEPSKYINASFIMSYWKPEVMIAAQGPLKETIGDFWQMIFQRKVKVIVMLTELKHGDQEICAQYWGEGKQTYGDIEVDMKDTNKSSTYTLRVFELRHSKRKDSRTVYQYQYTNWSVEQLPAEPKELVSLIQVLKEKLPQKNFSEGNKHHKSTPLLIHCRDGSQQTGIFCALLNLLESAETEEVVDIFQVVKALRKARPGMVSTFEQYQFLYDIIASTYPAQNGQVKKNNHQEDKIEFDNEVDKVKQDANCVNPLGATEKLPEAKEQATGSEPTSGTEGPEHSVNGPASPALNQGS

[2] = biological target: human CD45 on the human T cell line PEER (human) (UniProt P08575); assay: FACS competition with FITC-conjugated mA6 on PEER cells; curve fit assuming divalent antibody binding

Kd [1]: 1.67 nM
Kd [2]: 2.44 nM
B1: humanised antibody VHE-N73D/humV1 (antibody, V domains shown)
VH: EVQLVESGAEVKKPGASVKVSCKASGYTFTNYIIHWVKQEPGQGLEWIGYFNPYNHGTKYNEKFKGRATLTADKSISTAYMELSSLRSEDTAVYYCARSGPYAWFDTWGQGTTVTVSS
VL: DILLTQSPATLSLSPGERATLSCRASQNIGTSIQWYQQKPGQAPRLLIRSSSESISGIPSRFSGSGSGTDFTLTISSLEPEDFAVYYCQQSNTWPFTFGQGTKLEIK
notes: Constant parts are human gamma-1 and human kappa; expressed in Sp2/0 cells; also called VHEN73D/VL1; VHEN73D/VLh

From patent EP1664122B1 (Novartis AG, dated 2010)
